Source: the supplement of paper PMC9170038

Tested on: MS2 coat protein
Assay: apparent KD of MS2 coat protein; higher = weaker reporter binding
Conditions: Eterna round: R107
Method in brief: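 Values are apparent KD, taken as the median for each design of fits to normalised binding curves from individual clusters. The designed RNA switches were transcribed on-chip from Illumina sequencing clusters and exposed to SNAP-549-labelled MS2 coat protein at twofold increasing amounts from 0.7 or 1.5 nM to 3 µM. Titration used 100 mM Tris-HCl pH 7.5, 80 mM KCl and 4 mM MgCl2, without or with constant ligand.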

[1] = input ligand: theophylline 20 uM
[2] = input ligand: tryptophan 2.4 mM
[3] = input ligand: theophylline 2 mM

Sequence | apparent KD of MS2 coat protein (input ligand: arginine 13.2 mM) | apparent KD of MS2 coat protein [1] | apparent KD of MS2 coat protein [2] | apparent KD of MS2 coat protein (input ligand: none) | apparent KD of MS2 coat protein [3]
GAUGAUAUUGCAGAUACCAGACACAUGAGGAUCACCCAUGUCGCUGAGAUGCUGGAUCGUGUCCCUUGGCAGCUGCGAUAUCAUC [Brazil] | 38.7 nM | 106 nM | 49.6 nM | – | –
GCACAAGAUGGAAGGAGCGCUGGGAAAGGUCACAUGAGGAUCACCCAUGUUCUCCUUGCCGAGCAGGUAGGUCGCCAUCUUGUGC [SSAB NP+V+V2 #2] | 30.4 nM | 50 nM | 33.9 nM | 37.8 nM | 56.1 nM
GCACAAGAUGGAAGGAGCGCUGGUAACGGUCACAUGAGGAUCACCCAUGUGCUCCUUGCCGAGCAGGUAGGUCGCCAUCUUGUGC [SSAB NP+V+V2 #6 +-Same Structure] | 34.1 nM | 46.1 nM | 35.3 nM | 44.4 nM | 45.3 nM
GCACAAGAUGGAAGGAGCGCUGGUAGGUGACACAUGAGGAUCACCCAUGUGCUCCUUGCCGAGCAGGUAGGUCGCCAUCUUGUGC [SSAB NP+V+V2 #7] | 21.1 nM | 40.3 nM | 25.5 nM | 27.7 nM | 36.1 nM
GCACCAGGUACGGAUACCAGACGCUGCCGAUUGGGUGGACAUGAGGAUCACCCAUGUAAUGUCCCUUGGCAGCCGUACCUGGUGC [#17 Exclusion-TheophyllineB] | 13.5 nM | 38.8 nM | 17.8 nM | 13.8 nM | 200 nM
GCACCAGGUACGGAUACCAGCUGCCACAGUUACAUGAGGAUCACCCAUGUGAUAAAGUGUAGCCCUUGGCAGCUGUACCUGGUGC [SSThB NP+V+V2 #6 +-Same Structure] | 93.2 nM | 69.1 nM | 125 nM | – | –
GCACCAGGUACGGAUACCAGCUGCCACGGUUACAUGAGGAUCACCCAUGUGAUAAGGUGUAGCCCUUGGCAGCUGUACCUGGUGC [SSThB NP+V+V2 #7 +-Same Structure] | 96.9 nM | 500 nM | 258 nM | 142 nM | 411 nM
GCACCAGGUACGGAUACCAGCUGCCAGAGAUACAUGAGGAUCACCCAUGUGACCUGAUUUAGCCCUUGGCAGCUGUACCUGGUGC [SSThB NP+V+V2 #2 Same Structure] | 178 nM | 472 nM | 680 nM | – | –
GCACGACAUGAGGAUCACCCAUGUGCAGAUACCAGUAAUGUAUAUUACCCUUGGCAGCUGAGUAGAUCUGGAGGGCUAUAGGUAA [Same State Theophylline A GF10] | 11.5 nM | 18.7 nM | 14.1 nM | – | –
GCAUAGUAAAAUGAUACCAGAGUCAAAACAGACAUGAGGAUCACCCAUGUGCAUAUACAACUCCCUUGGCAGCAUUAAAACGGGA [theeternabot_sameState_MS2_Theo_B_28] | 14.2 nM | 18.7 nM | 18.2 nM | – | –
GCAUCCUAGUCGGCCGCCACUGGAUGUACCCAGUGCUGGUACAAACAUGAGGAUCACCCAUGUACCAGGACCGGGACUAGGAUGC [(Trp1)-(MT2)''-(T1)'-(MT2)'-(Ms2)-(Trp2)_Design3] | 23.6 nM | 16.4 nM | 9.93 nM | 12.7 nM | 12.3 nM
GCAUGUUGGUGGUAUCUGCGAAGGCGGAAUCGAGGACCGGUACGGCCGCCACUCGGCGACAUGAGGAUCACCCAUGUGGUUAGGA [Exclusion - Tryptophan A (Freestyle 8)] | 18.6 nM | 170 nM | 203 nM | 238 nM | 658 nM
GCCAGACAUGAGGAUCACCCAUGUAGCGAUACCAGCUCUGUUGUGAGCCCUUGGCAGCGCACUGGCAUCGCGGGUGAUCCUGCAU [(T)''-(Ms2)-(Theo)-(T)'-(M)'-(M)''_Design3] | 15.1 nM | 137 nM | 33.1 nM | – | –
GCCGCGGCCGCGAUACACAUGGGUAUGUAACGAGGACCGGUACGGCCGCCACUCGAGAUAAUGUACAUGAGGAUCACCCAUGUAC [Exclusion Tryp A GF12] | 10.3 nM | 15.1 nM | – | – | 12.8 nM
GCCGCGGCCGCGAUACACAUGGGUGUGUAACGAGGACCGGUACGGCCGCCACUCGAGAUGGUGUACAUGAGGAUCACCCAUGUAC [Exclusion Tryp A GF14] | 10.5 nM | 21.5 nM | 13.4 nM | 14.5 nM | 17.4 nM
GCGAUACGUACUGAUACCAGAGACAUGAGGAUCACCCAUGUCCCAUGAUCAUACCUCAGACUCCCUUGGCAGCAGGAUAAGUGAG [Exclusion Theophylline B GF2] | 11.3 nM | 15.1 nM | 12 nM | – | –
GCGUUGGUCGGAAGGAGCGACAUGAGGAUCACCCAUGUCUCCCGUUAUGGGAGUUCCUUAGGUCAGGUAGGUCGCCGACUGACGC [#1 Exclusion - Arginine B Attempt #20 (Inspired by Omei)] | 96.1 nM | 193 nM | 143 nM | 209 nM | 150 nM
GCUACAUGAGGAUCACCCAUGUAUGCGAGCCGAGGACCGGUACGGCCGCCACUCGCUUAACAUGAGGAUCACCCAUGUUGCUCGG [SSTA DOUBLE!!! :-D #17] | 38.9 nM | 77.8 nM | – | – | 55.1 nM
GCUAGGUCAUCGGCCGCCACUAACGAUGGCUCCGACAUGAGGAUCACCCAUGUGCCACAUGCGCAUAGGACCGGGAUGACCUAGC [SSTB NP+V+V2 #2] | 16.8 nM | 22.7 nM | – | – | 19.8 nM

Sequence | apparent KD of MS2 coat protein (input ligand: arginine 13.2 mM) | apparent KD of MS2 coat protein [1] | apparent KD of MS2 coat protein [2] | apparent KD of MS2 coat protein (input ligand: none) | apparent KD of MS2 coat protein [3]
GCUAGGUCUACGGCCGCCACUAGACGUGGGUUUAACAUGAGGAUCACCCAUGUGCUACAGGCGCAUAGGACCGGGUAGACCUAGC [SSTB NP+V+V2 #10 +-Same Structure] | 532 nM | 713 nM | 51.3 nM | 414 nM | 928 nM
GCUAGUGGCAGAAGGAGCGACAUUUUAAGUGGUCGAUACAUGAGGAUCACCCAUGUACUAUGUCAGGUAGGUCGCUGCCACUAGC [EAB NP+V+V2 #3 +-Same Structure] | 39.1 nM | 38.8 nM | 34 nM | 34.8 nM | 42.9 nM
GCUAGUGGCAGAAGGAGCGAGGCGACAUACGGGUACAUGAGGAUCACCCAUGUGGUGUGUCCUCAGGUAGGUCGCUGCCACUAGC [SSAB NP+V+V2 #12] | 134 nM | 152 nM | 521 nM | 74.7 nM | 145 nM
GCUAGUGGCAGAAGGAGCGAGGCUACAUACGGGUACAUGAGGAUCACCCAUGUGGUGUGUACUCAGGUAGGUCGCUGCCACUAGC [SSAB NP+V+V2 #13 Same Structure] | 193 nM | 754 nM | 467 nM | 921 nM | 977 nM
GCUGCAGCUACGGCCGCCACUGUUACGUGAGACAUGAGGAUCACCCAUGUUGAUGUUUUACAGAAUAGGACCGGGUAGUUGUAGU [E 1.1] | 8.84 nM | 11.3 nM | – | – | 9.87 nM
GCUGCCAUACGAAGGAGCGCUGGUGUAGUGCGGCGAACAUGAGGAUCACCCAUGUGGCAGCAGCAGGUAGGUCGCGUAUGGCAGC [EAB #14] | 12.3 nM | 14.6 nM | 11 nM | 11.2 nM | 12.6 nM
GCUGGACUUUCGGCCGCCACUGAGAGAGUCGUGUGAACAUGAGGAUCACCCAUGUAAUAUAUAUACAGGACCGGGAGGGUUGUGC [4.P] | 11.2 nM | 14.7 nM | – | – | 11.6 nM
GCUGUAAGUGCAGAUACCAGCAAGUGAUAUUUCAUAUGACAUGAGGAUCACCCAUGUAACUGCCCUUGGCAGCUGCACUUACAGC [SSTHB #10] | 114 nM | 122 nM | 241 nM | – | –
GGAAAAGAAAGAAAAGAAAUCCCUCCCUCCCGAGGACCGGUACGGCCGCCACUCGCCCUCCCUCCCACAUGAGGAUCACCCAUGU [Exclusion - Trytophan A] | 23.7 nM | 31.3 nM | – | – | 27.8 nM
GGACUAACCAGAAGGAGCGACACAAAGCAGAAACUGCAUCCUCCGCACGAGGAUCACCCGUGUCAGGUAGGUCGCUGGUUAGUCG [ArgBX 28] | 54 nM | 57 nM | 41.7 nM | 50.2 nM | 50.4 nM
GGACUAACCAGAAGGAGCGACACGCAGAAACUGCAAAAUCCUCCACACGAGGAUCACCCGUGUCAGGUAGGUCGCUGGUUAGUCG [ArgXB 16 #Zipper #MS2Left #StaticStem #Blueprint] | 44.6 nM | 83.4 nM | 53.8 nM | 75.3 nM | 86.1 nM
GGACUAACCAGAAGGAGCGACGCAAAGCAGAAACUGCAUCCUCCGCACGAGGAUCACCCGUGUCAGGUAGGUCGCUGGUUAGUCG [ArgBX 28] | 18.8 nM | 24.7 nM | 21.7 nM | 17.7 nM | 26.3 nM
GGACUAACCAGAAGGAGCGACGCGCAGAAACUGCAAAAUCCUCCGCACGAGGAUCACCCGUGUCAGGUAGGUCGCUGGUUAGUCG | 21.9 nM | 34.5 nM | 27.7 nM | 29.6 nM | 32.6 nM
GGACUAACCAGAAGGAGCGACGCGCAGAAACUGCAAUUUCCUCCACACGAGGAUCACCCGUGUCAGGUAGGUCGCUGGUUAGUCG | 15 nM | 18.7 nM | 16.6 nM | 17.4 nM | 17.6 nM
GGACUAACCAGAAGGAGCGGCACAGCAGAAACUGCAAAUCCUCCGCACGAGGAUCACCCGUGUCAGGUAGGUCGCUGGUUAGUCG [ArgBX 28] | 33.5 nM | 55.4 nM | 38.4 nM | 37.1 nM | 49.4 nM
GGACUAACCAGAAGGAGCGGCGCGCAGAAACUGCAAAUUCCUCCGCACGAGGAUCACCCGUGUCAGGUAGGUCGCUGGUUAGUCG [ArgBX 28] | 14.2 nM | 17.9 nM | 17.5 nM | 14.2 nM | 16.6 nM
GGACUAACCAGAAGGAGCGGCGCGCAGAAACUGCAAUUUCCUCCACACGAGGAUCACCCGUGUCAGGUAGGUCGCUGGUUAGUCG [ArgBX 29] | 13.1 nM | 15.1 nM | 12.3 nM | 11.4 nM | 12.9 nM
GGAGGGACCAGAAGGAGCGACAUGAGGAUCACCCAUGUCUCCCGUUAUGGGAGUUCUUUAGGUCAGGUAGGUCGCUGGUCCCUCC [#1 Exclusion - Arginine B Attempt #6 (Inspired by Omei)] | 55.7 nM | 87.3 nM | 86.1 nM | 158 nM | 138 nM
GGAGGUACCCGAAGGAGCGACAUGAGGAUCACCCAUGUCUCCCGUUAUGGGAGUUCUUUAGGUCAGGUAGGUCGCGGGUACCUCC [#1 Exclusion - Arginine B Attempt #2 (Inspired by Omei)] | 79.3 nM | 114 nM | 97 nM | 97.7 nM | 202 nM
